Molecular target: HLA-A*24 (human)
Test: UV-exchange ELISA, exchange yield grade

Binder	peptide exchange yield [%]
VFDTSIAQLF [… (SEQ ID NO: 317)]	50 to 75
SYTSVLSRL [… (SEQ ID NO: 312)]	50 to 75
FYTFPFQQL [… (SEQ ID NO: 277)]	50 to 75
IYGEKLQFIF [… (SEQ ID NO: 273)]	50 to 75
QYLDVLHAL [… (SEQ ID NO: 276)]	> 75
IYAPTLLVF [… (SEQ ID NO: 310)]	50 to 75
KYGNFIDKL [… (SEQ ID NO: 350)]	50 to 75
RFLMKSYSF [… (SEQ ID NO: 271)]	> 75
IFIDNSTQPLHF [… (SEQ ID NO: 257)]	50 to 75
LYSVIKEDF [… (SEQ ID NO: 303)]	50 to 75
TYIDTRTVF [… (SEQ ID NO: 297)]	> 75
FYPQIINTF [… (SEQ ID NO: 292)]	> 75
VYPHFSTTNLI [… (SEQ ID NO: 293)]	> 75
RFPVQGTVTF [… (SEQ ID NO: 294)]	50 to 75
LYLPVHYGF [… (SEQ ID NO: 302)]	50 to 75
VYNEQIRDLL [… (SEQ ID NO: 354)]	50 to 75
RYVFPLPYL [… (SEQ ID NO: 272)]	> 75
LYTETRLQF [… (SEQ ID NO: 264)]	> 75
SFLNIEKTEILF [… (SEQ ID NO: 267)]	20 to 49
VYPAEQPQI [… (SEQ ID NO: 306)]	50 to 75
EYLQNLNHI [… (SEQ ID NO: 311)]	> 75
EYNEVANLF [… (SEQ ID NO: 304)]	50 to 75
NYLGGTSTI [… (SEQ ID NO: 343)]	50 to 75
AYKSEVVYF [… (SEQ ID NO: 298)]	> 75
YFIKSPPSQLF [… (SEQ ID NO: 259)]	20 to 49

Binder	peptide exchange yield [%]
QYSIISNVF [… (SEQ ID NO: 349)]	50 to 75
IYLEHTESI [… (SEQ ID NO: 348)]	50 to 75
RYILENHDF [… (SEQ ID NO: 263)]	50 to 75
SYQVIFQHF [… (SEQ ID NO: 296)]	> 75
VYPDTVALTF [… (SEQ ID NO: 288)]	20 to 49
KFDDVTMLF [… (SEQ ID NO: 301)]	> 75
TYNPNLQDKL [… (SEQ ID NO: 280)]	> 75
SYLTQHQRI [… (SEQ ID NO: 341)]	50 to 75
KYYRQTLLF [… (SEQ ID NO: 309)]	20 to 49
KYTDWTEFL [… (SEQ ID NO: 266)]	50 to 75
VWLPASVLF [… (SEQ ID NO: 279)]	50 to 75
KYTHFIQSF [… (SEQ ID NO: 313)]	> 75
KYGDFKLLEF [… (SEQ ID NO: 290)]	> 75
AYAQLGYLL [… (SEQ ID NO: 258)]	50 to 75
KYSDVKNLI [… (SEQ ID NO: 319)]	> 75
IYNPNLLTASKF [… (SEQ ID NO: 287)]	50 to 75
EYNSDLHQFF [… (SEQ ID NO: 345)]	50 to 75
VYFEGSDFKF [… (SEQ ID NO: 316)]	50 to 75
QYPYLQAFF [… (SEQ ID NO: 269)]	50 to 75
YYLGSGRETF [… (SEQ ID NO: 291)]	50 to 75
NYAFLHRTL [… (SEQ ID NO: 342)]	50 to 75
SYGTILSHI [… (SEQ ID NO: 286)]	> 75
NYSPGLVSLIL [… (SEQ ID NO: 281)]	50 to 75
SYLVIHERI [… (SEQ ID NO: 295)]	50 to 75
IFITKALQI [… (SEQ ID NO: 268)]	20 to 49

Binder	peptide exchange yield [%]
VYAEVNSL [VYAEVNSL (SEQ ID NO: 347)]	50 to 75
GYAFTLPLF [… (SEQ ID NO: 307)]	50 to 75
TYPSQLPSL [… (SEQ ID NO: 300)]	50 to 75
KQLDIANYELF [… (SEQ ID NO: 274)]	> 75
VYVGDALLHAI [… (SEQ ID NO: 285)]	50 to 75
NYENKQYLF [… (SEQ ID NO: 305)]	> 75
YYSQESKVLYL [… (SEQ ID NO: 270)]	50 to 75
RYFKGDYSI [… (SEQ ID NO: 314)]	50 to 75
TYGKIDLGF [… (SEQ ID NO: 353)]	50 to 75
FFHEGQYVF [… (SEQ ID NO: 289)]	> 75
TFDGHGVFF [… (SEQ ID NO: 308)]	50 to 75
VYSSQFETI [… (SEQ ID NO: 262)]	> 75
VYMNVMTRL [… (SEQ ID NO: 260)]	> 75
TYSNSAFQYF [… (SEQ ID NO: 318)]	50 to 75
SYLNEAFSF [… (SEQ ID NO: 265)]	> 75
QYGGDLTNTF [… (SEQ ID NO: 352)]	50 to 75
EYNSDLHQF [… (SEQ ID NO: 344)]	50 to 75
NYLVDPVTI [… (SEQ ID NO: 282)]	50 to 75
IFHEVPLKF [… (SEQ ID NO: 351)]	50 to 75
EYQEIFQQL [… (SEQ ID NO: 283)]	50 to 75
DYLKDPVTI [… (SEQ ID NO: 284)]	50 to 75
KYGTLDVTF [… (SEQ ID NO: 275)]	> 75
FYIPHVPVSF [… (SEQ ID NO: 315)]	50 to 75
KYQYVLNEF [… (SEQ ID NO: 299)]	50 to 75
GYIKLINFI [… (SEQ ID NO: 261)]	> 75
